We go through three molecules from article PMC8484483 (Scientific Reports, 2021).

Holding throughout (conditions): both partners purified
Assay [1] deals with T1, recombinant TNFR2 extracellular domain fused with rabbit IgG1 Fc (Homo sapiens, UniProt P20333).
T1 construct: TNFR2, human, extracellular domain; also called TNFR2-rFc; source: Expi293F, transfected; purified on Protein A (as the chimeric antibodies)
The assay is described as follows: SPR; Biacore T200; antibodies (1 ug/mL, ca. 400 RU) captured on a CM5 chip with anti-human IgG Fc; TNFR2-rFc and CD30-rFc (10 nM) run one after the other as 1st and 2nd analytes, in both orders; PBS, 0.05% Tween 20, pH 7.4, 25 °C. (In general: In SPR one partner is held on a chip, and binding of the other changes the refractive index at the surface.)

Assay [2] has as its target T2, recombinant CD30 extracellular domain fused with rabbit IgG1 Fc (Homo sapiens, UniProt P28908).
T2 construct: CD30, human, extracellular domain; also called CD30-rFc; source: Expi293F, transfected; purified on Protein A (as the chimeric antibodies)
The assay is described as follows: flow cytometry on cells; crosslinking: antigen-expressing cells incubated with mAb or BsAb (10 ug/mL), washed twice, then CD30-rFc or TNFR2-rFc (50 ng/mL) 1 h on ice; rFc detected with R-PE anti-rabbit IgG; the antibody is held on the cells by its other arm. Background: Flow cytometry measures light scatter and fluorescence of single cells or particles in a stream.

Assay [3] addresses T2, recombinant CD30 extracellular domain …. The assay is described as follows: SPR; Biacore T200; antibodies (1 ug/mL, ca. 400 RU) captured on a CM5 chip with anti-human IgG Fc; TNFR2-rFc and CD30-rFc (10 nM) run one after the other as 1st and 2nd analytes, in both orders; PBS, 0.05% Tween 20, pH 7.4, 25 °C.

T1 sequence (P20333 23-257): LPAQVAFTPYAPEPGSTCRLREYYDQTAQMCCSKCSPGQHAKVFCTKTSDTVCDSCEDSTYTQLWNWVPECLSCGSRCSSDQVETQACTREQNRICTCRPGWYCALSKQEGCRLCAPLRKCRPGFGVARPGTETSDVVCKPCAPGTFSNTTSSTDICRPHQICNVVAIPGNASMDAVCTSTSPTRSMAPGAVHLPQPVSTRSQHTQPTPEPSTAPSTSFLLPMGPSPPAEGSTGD
T2 sequence (P28908 19-385): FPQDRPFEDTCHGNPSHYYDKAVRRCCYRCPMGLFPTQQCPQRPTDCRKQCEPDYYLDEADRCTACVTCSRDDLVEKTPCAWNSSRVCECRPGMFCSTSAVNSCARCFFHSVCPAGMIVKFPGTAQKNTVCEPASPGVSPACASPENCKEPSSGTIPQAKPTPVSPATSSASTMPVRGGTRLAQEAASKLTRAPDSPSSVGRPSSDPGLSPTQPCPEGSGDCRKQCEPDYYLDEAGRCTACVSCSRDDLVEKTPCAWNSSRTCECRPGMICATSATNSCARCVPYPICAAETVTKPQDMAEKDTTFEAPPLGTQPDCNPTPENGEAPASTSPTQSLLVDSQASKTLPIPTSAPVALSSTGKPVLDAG

B1: anti-CD30 T104, human chimeric monoclonal antibody (antibody, V domains shown)
VH: QIQLVQSGPELKKPGETVKISCKASGYTFTDYSMHWVKQAPGKGLKWMGWINTETGEPTYADDFKGRFAFSLETSASTAYLQINNLKNEDTATYFCTEGYVFDFWGQGTTLTVSS
VL: DILLTQSPAILSVSPGERVSFSCRASRSIGTSIHWYQQRTNGSPRLLINYASESISGIPSRFSGSGSGTDFTLSINSVESEDIADYYCQQSNSWPLTFGAGTKLELK
On to B1, for which the binding result is listed as “no binding (tested: 10 nM)” in assay [1] and “binds” in assay [2].

B2: C-cleaved side product of the IMPTS reaction, monovalent Fab^CD30-Fc (SEC peak P2) (antibody, V domains shown)
VH: B1 VH
VL: B1 VL
Consider B2, for which the binding result in assay [1] was “no binding (tested: 10 nM)”; in assay [3], “binds”.

B3: anti-TNFR2 TR109, human chimeric monoclonal antibody (antibody, V domains shown)
VH: QVQLKESGPGLVAPSQSLSITCTVSGFSLTVYGVNWVRQPPGKGLEWLGMIWGDGSTAYNSALKSRLTITKDNSKTQVFLKMNSLQTDDTARYYCARDGRRYALDYWGQGTSVTVSS
VL: DIVLTQSPTSLAVSLGQRATISCRASESVDSYGDSFLHWYQQKPGQPPILLIYRASNLDSGIPARFSGSGSRTDFTLTINPVEADDVATYYCQQSNEDPYTFGGGTKLEIK
In the case of B3, the binding result in assay [1] is “binds”; in assay [3], “no binding (tested: 10 nM)”.
